B1: H2-Kb / E9 (parent)
chain 1: QQKVQQSPESLTVSEGAMASLNCTFSDRSSDNFRWYRQHSGKGLEVLVSIFSDGEKEEGSFTAHLNRASLHVFLHIREPQPSDSALYLCAVSRSSGSWQLIFGSGTQLTVMP
chain 2: NSGVVQSPRYIIKGKGERSILKCIPISGHLSVAWYQQTQGQELKFFIQHYDKMERDKGNLPSRFSVQQFDDYHSEMNMSALELEDSAVYFCASSRDSNNQAPLFGEGTRLSVL
chain 3: not shown
chain 4: IQKTPQIQVYSRHPPENGKPNILNCYVTQFHPPHIEIQMLKNGKKIPKVEMSDMSFSKDWSFYILAHTEFTPTETDTYACRVKHDSMAEPKTVYWDRDM
chain 5: SIINFEKL
B2: H2-Kb / B3 (parent)
chain 1: GQQVKQSSPSLTVQEGGISILNCDYENDMFDYFAWYKKYPDNSPTLLISVRSNVDKREDGRLTVFLNKSGKHFSLHITASQPEDTAVYLCAAGNTGYQNFYFGKGTSLTVIP
chain 2: DSGVVQSPRHIIKEKGGRSVLTCIPISGHSNVVWYQQTLGKELKFLIQHYEKVERDKGFLPSRFSVQQFDDYHSEMNMSALELEDSAMYFCASSSLQGARNQAPLFGEGTRLSVL
chain 3: not shown
chain 4: B1 chain 4
chain 5: SIINFEKL

Variants of: B1
Assay: % of reporter cells activated (NFAT-GFP), raw
Details: with E9; scale: % of reporter cells activated
Further: test concentration or dose not given here.

Ratio to parent: each site, then its substitutions
chain 5 F5: M 1.74, N 2.01, W 1.14, V 1.89, Y 2.37, A 1.68, L 1.98, I 1.02, D 3.05, P 2.51, C 1.95, T 1.45, Q 1.32, E 2.43, H 1.89, R 0.671, S 1.83, G 1.74, K 2.54
chain 5 I2: A 2.22, L 1.5, Q 1.77, R 1.06, D 2.31, S 1.46, M 1.59, E 2.07, Y 1.53, K 1.2, C 2.31, F 1.02, G 1.32, W 1.86, T 2.01, P 1.77, V 2.13, H 1.71, N 1.77
chain 5 I3: A 1.71, E 1.86, Q 1.83, R 1.89, C 1.65, G 1.62, F 1.26, Y 2.43, H 1.53, S 2.13, P 1.68, D 1.41, K 2.31, T 1.68, N 0.778, L 2.07, M 1.17, V 1.23, W 1.74
chain 5 N4: Q 1.38, D 1.11, Y 1.15, A 2.22, V 2.04, W 1.77, R 1.59, F 1.38, E 1.68, G 1.35, T 1.47, P 2.07, C 2.34, H 2.63, K 2.4, I 1.92, S 1.89, M 1.71, L 2.31
chain 5 L8: V 0.302, H 1.92, Y 1.2, Q 0.898, P 1.35, K 1.14, W 0.778, I 0.988, D 0.605, S 0.886, R 1.53, G 1.25, A 0.868, M 0.988, F 1.77, T 0.623, C 2.78, N 0.838, E 1.26
chain 5 S1: V 1.86, P 1.23, F 2.34, L 2.01, D 1.29, K 1.23, A 3.05, T 1.35, I 2.49, N 1.32, H 2.01, Q 1.16, E 2.1, M 1.5, R 0.719, G 2.1, C 3.08
chain 5 E6: T 2.1, V 3.26, N 1.47, P 2.1, W 2.07, I 2.63, F 1.68, G 1.74, K 1.98, A 2.25, M 1.86, C 0.862, L 1.35, Y 2.84, R 2.34, H 1.47, Q 1.47, S 2.46, D 1.68
chain 5 K7: Q 2.28, M 1.02, H 2.43, Y 1.26, W 1.38, S 1.41, R 0.237, T 2.01, C 3.02, I 2.54, P 2.07, L 2.01, F 0.958, A 0.686, V 1.71, E 2.1, N 1.95, G 1.92, D 1.53

Variants of: B2
Assay: % of reporter cells activated (NFAT-GFP), raw
Details: with B3; scale: % of reporter cells activated

Ratio to parent, by site and new letter:
chain 5 S1: N 0.0477, F 0.18, V 0.34, I 0.207, P 0.303, R 0.101, Q 0.266, D 0.229, H 0.259, E 0.216, G 0.192, K 0.356, T 0.194, M 0.195, Y 0.576, L 0.118, W 0.138

Source: PMC11480844
